Data taken from PMC6572864, “Recombinant production, purification, crystallization, and structure analysis of human transforming growth factor β2 in a new conformation” (Scientific Reports, 2019).

Target: the molecule itself
Assay: crystal structure; sitting-drop vapor diffusion, 20 °C, 20% isopropanol, 0.2 M calcium chloride, 0.1 M sodium acetate pH 4.6; space group P4(1)2(1)2, 2.0 Å; half a disulfide-linked dimer per asymmetric unit

B1: human transforming growth factor β2, mature growth-factor moiety (GF) (ligand, UniProt P61812 303-414, looked up)
chain: ALDAAYCFRNVQDNCCLRPLYIDFKRDLGWKWIHEPKGYNANFCAGACPYLWSSDTQHSRVLSLYNTINPEASASPCCVSQDLEPLTILYYIGKTPKIEQLSNMIVKSCKCS
notes: human TGFβ2 growth-factor moiety, residues A303-S414 of the precursor (UniProt P61812), 112 residues, released by cleavage at R302-A303; Disulfide-linked homodimer (intermolecular disulfide C379-C379); The crystals came from octahistidine-tagged pro-TGFβ2 mixed with methylamine-induced hα2M; they also grew from pro-TGFβ2 alone; also called mature TGFβ2; TGFβ2 GF; source: purified together with …
stoichiometry N: 2
